Positions count from the first letter of the chain named. Names may count otherwise.
T1: reconstituted tissue factor (Innovin, Dade) and membrane, P13726
T1 chain: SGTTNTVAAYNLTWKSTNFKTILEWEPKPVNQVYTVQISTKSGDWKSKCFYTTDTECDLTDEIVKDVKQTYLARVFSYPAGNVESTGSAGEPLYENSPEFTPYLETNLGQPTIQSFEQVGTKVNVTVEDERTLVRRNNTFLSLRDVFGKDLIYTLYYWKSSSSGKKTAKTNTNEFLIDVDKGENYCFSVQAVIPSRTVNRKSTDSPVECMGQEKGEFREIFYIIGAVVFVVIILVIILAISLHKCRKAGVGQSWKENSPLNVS

B1: factor VII F5K (protein)
chain: ANAKLEELRPGSLERECKEEQCSFEEAREIFKDAERTKLFWISYSDGDQCASSPCQNGGSCKDQLQSYICFCLPAFEGRNCETHKDDQLICVNENGGCEQYCSDHTGTKRSCRCHEGYSLLADGVSCTPTVEYPCGKIPILEKRNASKPQGRIVGGKVCPKGECPWQVLLLVNGAQLCGGTLINTIWVVSAAHCFDKIKNWRNLIAVLGEHDLSEHDGDEQSRRVAQVIIPSTYVPGTTNHDIALLRLHQPVVLTDHVVPLCLPERTFSERTLAFVRFSLVSGWGQLLDRGATALELMVLNVPRLMTQDCLQQSRKVGDSPNITEYMFCAGYSDGSKDSCKGDSGGPHATHYRGTWYLTGIVSWGQGCATVGHFGVYTRVSQYIEWLQKLMRSEPRPGVLLRAPFP
B2: Factor VII mutant Q11E33F34I35 (protein)
chain: B1 chain with K4F, P10Q, K32E, D33F, A34I
B3: factor VII mutant Q11E33D36 (protein)
chain: B1 chain with K4F, P10Q, K32E, E35D

Columns and labels:
[1] = target: reconstituted tissue factor (Innovin, Dade) and membrane (UniProt P13726)
[2] = target: T1, reconstituted tissue factor (Innovin, …)

Molecule	activity (competitive assay described in Example 6) [1]	activity in the competitive assay described in Example 6 [2]
Factor VII mutant Q11E33I34F35	displayed similar activity as the Q11E33F34I35 mutant	–
B1	–	a protein with 33% of the activity of wild type factor VII
B2	–	The activity of the resulting mutant Q11E33F34135 was 60% that of the Q11E33F34 mutant
B3	–	had 70% the activity of the Q11E33 mutant

Reference: patent US20060264616
